The text below walks through data of paper PMC3364176.

This experiment has as its target bovine brain microtubules (bovine) (UniProt Q6B856). Nature of the experiment: co-sedimentation.

B1: GST-CSAP (glutathione S-transferase fusion with full-length centriole and spindle-associated protein) (natural protein)
chain: MSPGSGVKSEYMKRYQEPRWEEYGPCYRELLHYRLGRRLLEQAHAPWLWDDWGPAGSSEDSASSESSGAGGPAPRCAPPSPPPPVEPATQEEAERRARGAPEEQDAEAGDAEAEDAEDAALPALPVKDVEDKPEQQTRTRETDKSPTSTEPRQQPSALFARGNRKAVKSPQRSSSKIKENKHPFALYGWGEKQTDTGSQKTHNVCASAPVHEIHESALRAKNRRQVEKRKLVAQRQRAHSVDVEKNRKMKASSSENPWMTEYMRCYSARA
As usually defined, the Kd is the constant that tells how readily two partners part at equilibrium. Low values mean higher affinity, high ones lower affinity. Molecule B1 came in with a Kd of 1000 to 2000 nM.
